Ends that are not written are not given here.
Tests used:
FLAG-MYC3 (full-length) = assay: AlphaScreen assay of interaction with FLAG-MYC3; format: binding, Arabidopsis; details: FLAG-MYC3 50 nM, triplicate, in words; for AlphaScreen interaction of biotin-conjugated peptide with MYC3: Biotin-MED25^CMIDM 50, 150 or 250 nM
[1] = biological target: T1, His6-SUMO-tagged MYC3 (44–238) (Arabidopsis thaliana, UniProt Q9FIP9); assay: Fluorescence anisotropy; format: binding; details: in words
T1 sequence (Q9FIP9 44-238): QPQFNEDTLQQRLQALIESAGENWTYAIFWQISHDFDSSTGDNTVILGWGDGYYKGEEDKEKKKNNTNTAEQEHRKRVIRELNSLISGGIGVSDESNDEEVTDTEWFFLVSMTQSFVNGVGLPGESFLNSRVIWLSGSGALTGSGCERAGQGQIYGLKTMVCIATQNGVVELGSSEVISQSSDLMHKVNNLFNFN

[2] = biological target: T2, His6-SUMO-tagged MYC3 (44-238) (Arabidopsis thaliana, UniProt Q9FIP9 44-238); assay: fluorescence polarisation
T2 sequence (looked up): T1 sequence (Q9FIP9 44-238)

Row | Molecule | AlphaScreen interaction of biotin-conjugated peptide with MYC3 (FLAG-MYC3 (full-length)) | Kd [2] [nM] | other results
1 | Biotin-MED25^CMIDM: biotin-conjugated CMIDM peptide of MED25 (614–655) (YVGKADFLVFRAMSQHGFLGQLQDKKLCAVIQLPSQTLLLSV; not fully specified (N-terminus); also: biotin-conjugated) | directly interact with MYC3 | – | AlphaScreen interaction of partial peptides with FLAG-MYC3 (FLAG-MYC3 (full-length); peptide 150 nM each (Fig. 4D)): strong interaction
2 | JAZ10^CMID: cryptic MYC-interacting domain of JAZ10 (26–58aa) (FQKFLDRRRSFRDIQGAISKIDPEIIKSLLAST; also: 5-carboxyfluorescein-conjugated) [reference compound] | – | – | binding affinity for MYC compared with Jas motif of JAZ and MED25 [1]: stronger binding affinity for MYC than both the Jas motif of JAZ and MED25
3 | MED25^CMIDM: CMID-like MYC-interacting domain, amino acids 614 to 655 of MED25 (YVGKADFLVFRAMSQHGFLGQLQDKKLCAVIQLPSQTLLLSV; also: biotin-conjugated) | confirmed | – | interaction between MYC3 and CMIDM in FA assay ([1]; Fig. 5B): confirmed
4 | YVGKADFLVFRAMSQHGFLGQLQDKKLCAVIQLPSQTLLLSV (peptide, UniProt Q7XYY2 614-655, looked up, also: 5-carboxyfluorescein-conjugated) [fluorescein-conjugated MED25^CMIDM (614-655aa)] | – | 1900 | –
5 | FQKFLDRRRSFRDIQGAISKIDPEIIKSLLAST (peptide, UniProt Q93ZM9 26-58, looked up, also: 5-carboxyfluorescein-conjugated) [fluorescein-conjugated JAZ10^CMID (26-58aa)] | – | 470 | –
